US20070060522A1
One block for each substance: values may come before it.

Legend:
Assay in all cases: cell-based or functional assay
[1] = molecular target: αMβ2 (Mac-1; CD11b/CD18) on human peripheral blood monocytes (human) (UniProt P11215)
[2] = molecular target: CD54 (ICAM-1) on A375 human melanoma cells (human) (UniProt P05362)
[3] = molecular target: αLβ2 (LFA-1; CD11a/CD18) on human peripheral blood leukocytes (human) (UniProt P20701)

Chain of CD54 (ICAM-1) on A375 human melanoma cells (human) (P05362 28-532): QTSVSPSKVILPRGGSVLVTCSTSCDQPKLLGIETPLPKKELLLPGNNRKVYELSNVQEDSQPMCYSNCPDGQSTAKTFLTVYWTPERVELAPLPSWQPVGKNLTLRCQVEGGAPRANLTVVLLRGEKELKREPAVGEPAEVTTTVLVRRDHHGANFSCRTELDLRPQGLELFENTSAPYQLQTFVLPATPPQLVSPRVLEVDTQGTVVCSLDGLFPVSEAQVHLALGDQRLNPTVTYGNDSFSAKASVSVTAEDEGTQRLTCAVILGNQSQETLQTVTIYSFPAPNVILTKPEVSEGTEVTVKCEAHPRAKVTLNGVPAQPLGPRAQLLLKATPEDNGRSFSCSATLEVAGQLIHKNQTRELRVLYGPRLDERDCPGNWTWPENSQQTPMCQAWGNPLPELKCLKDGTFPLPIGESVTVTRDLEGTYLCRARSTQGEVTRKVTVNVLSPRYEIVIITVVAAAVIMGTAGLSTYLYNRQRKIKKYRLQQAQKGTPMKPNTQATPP

inhibition of monocyte adherence to sFn pretreated tumor cells [1]: 80%
inhibition of monocyte adherence to untreated A375 cells [1]: 22.5%
Substance: blocking monoclonal anti-αMβ2 antibody (clone ICRF44)

inhibition of adherence of sFn pretreated monocytes to A375 cells [2]: 86%
inhibition of adherence of untreated monocytes to A375 cells [2]: 53%
Substance: murine anti-human monoclonal blocking antibody against CD54 (clone 84H10)

inhibition of monocyte adherence to sFn pre-treated A375 cells [3]: 23%
inhibition of monocyte adherence to untreated A375 cells [3]: 80%
Substance: murine anti-human monoclonal blocking antibody against αLβ2 (clone 25.3)

monocyte adherence when monocytes and A375 cells were both pre-treated with sFn, static microplate assay (untreated control 32.9+1.3%) [2]: 15.9%
adherence of sFn treated monocytes to untreated A375 cells, static microplate assay (untreated control 32.9+1.3%) [1]: 38.8%
monocyte adherence to sFn pre-treated A375 cells, static microplate assay (untreated control 32.9+1.3%) [1]: 68.5%
Substance: soluble fibrin (sFn) (from UniProt P02671 36-629; P02675 45-491; P02679 27-453) (ligand)
